Results reported in publication PMC10575590, “Molecular basis of ClC-6 function and its impairment in human disease” (Science Advances, 2023).

Target: the molecule itself
Test: cryo-EM structure; purified ClC-6 in 150 mM NaCl, 0.1% digitonin, 20 mM Hepes pH 7.4; apo, with 2 mM ATP and 2 mM MgCl2, and the Y553C mutant; C2 symmetry imposed

B1: human ClC-6 (natural protein)
chain: MAGCRGSLCCCCRWCCCCGERETRTPEELTILGETQEEEDEILPRKDYESLDYDRCINDPYLEVLETMDNKKGRRYEAVKWMVVFAIGVCTGLVGLFVDFFVRLFTQLKFGVVQTSVEECSQKGCLALSLLELLGFNLTFVFLASLLVLIEPVAAGSGIPEVKCYLNGVKVPGIVRLRTLLCKVLGVLFSVAGGLFVEKEGPMIHSGSVVGAGLPQFQSISLRKIQFNFPYFRSDRDKRDFVSAGAAAGVAAAFGAPIGGTLFSLEEGSSFWNQGLTWKVLFCSMSATFTLNFFRSGIQFGSWGSFQLPGLLNFGEFKCSDSDKKCHLWTAMDLGFFVVMGVIGGLLGATFNCLNKRLAKYRMRNVHPKPKLVRVLESLLVSLVTTVVVFVASMVLGECRQMSSSSQIGNDSFQLQVTEDVNSSIKTFFCPNDTYNDMATLFFNPQESAILQLFHQDGTFSPVTLALFFVLYFLLACWTYGISVPSGLFVPSLLCGAAFGRLVANVLKSYIGLGHIYSGTFALIGAAAFLGGVVRMTISLTVILIESTNEITYGLPIMVTLMVAKWTGDFFNKGIYDIHVGLRGVPLLEWETEVEMDKLRASDIMEPNLTYVYPHTRIQSLVSILRTTVHHAFPVVTENRGNEKEFMKGNQLISNNIKFKKSSILTRAGEQRKRSQSMKSYPSSELRNMCDEHIASEEPAEKEDLLQQMLERRYTPYPNLYPDQSPSEDWTMEERFRPLTFHGLILRSQLVTLLVRGVCYSESQSSASQPRLSYAEMAEDYPRYPDIHDLDLTLLNPRMIVDVTPYMNPSPFTVSPNTHVSQVFNLFRTMGLRHLPVVNAVGEIVGIITRHNLTYEFLQARLRQHYQTI
notes: ClC-6 (chloride-proton exchanger), human; cDNA in the pEG BacMam vector; residues up to H851 are seen in the structure, so the whole protein is likely; also called WT ClC-6; apo-ClC-6; source: HEK293F cells, BacMam virus, purified (Strep-Tactin Sepharose, size exclusion chromatography) in digitonin
stoichiometry N: 2

B2: ClC-6 mutant (Y553C) (natural protein, human)
chain: MAGCRGSLCCCCRWCCCCGERETRTPEELTILGETQEEEDEILPRKDYESLDYDRCINDPYLEVLETMDNKKGRRYEAVKWMVVFAIGVCTGLVGLFVDFFVRLFTQLKFGVVQTSVEECSQKGCLALSLLELLGFNLTFVFLASLLVLIEPVAAGSGIPEVKCYLNGVKVPGIVRLRTLLCKVLGVLFSVAGGLFVEKEGPMIHSGSVVGAGLPQFQSISLRKIQFNFPYFRSDRDKRDFVSAGAAAGVAAAFGAPIGGTLFSLEEGSSFWNQGLTWKVLFCSMSATFTLNFFRSGIQFGSWGSFQLPGLLNFGEFKCSDSDKKCHLWTAMDLGFFVVMGVIGGLLGATFNCLNKRLAKYRMRNVHPKPKLVRVLESLLVSLVTTVVVFVASMVLGECRQMSSSSQIGNDSFQLQVTEDVNSSIKTFFCPNDTYNDMATLFFNPQESAILQLFHQDGTFSPVTLALFFVLYFLLACWTYGISVPSGLFVPSLLCGAAFGRLVANVLKSYIGLGHIYSGTFALIGAAAFLGGVVRMTISLTVILIESTNEITCGLPIMVTLMVAKWTGDFFNKGIYDIHVGLRGVPLLEWETEVEMDKLRASDIMEPNLTYVYPHTRIQSLVSILRTTVHHAFPVVTENRGNEKEFMKGNQLISNNIKFKKSSILTRAGEQRKRSQSMKSYPSSELRNMCDEHIASEEPAEKEDLLQQMLERRYTPYPNLYPDQSPSEDWTMEERFRPLTFHGLILRSQLVTLLVRGVCYSESQSSASQPRLSYAEMAEDYPRYPDIHDLDLTLLNPRMIVDVTPYMNPSPFTVSPNTHVSQVFNLFRTMGLRHLPVVNAVGEIVGIITRHNLTYEFLQARLRQHYQTI
notes: ClC-6, human, with the disease-causing patient variant p.Y553C; made as apo-ClC-6; Variant found in patients (heterozygous p.Y553C), so the origin is written as natural; also called Y553C mutant; p.Y553C; source: HEK293F cells, BacMam virus, purified (Strep-Tactin Sepharose, size exclusion chromatography) in digitonin
binding result: binds
